Assay [1] concerns NCI-H1975 cells. The experiment in a line: Tumor cell killing by activated PBMC. The format is cell-based, human. To be noted: NCI-H1975, SEMG2-negative. Here is the method: (§1) To test the above hypothesis, the effects of different epitope-specific antibodies on tumor cell killing by activated PBMC were compared. Specifically, A375 human melanoma and LOVO human colorectal cancer cells highly expressing SEMG2 were seeded in 96-well plate. Human peripheral blood mononuclear cells (PBMC; #70025, Stem Cell) were activated with 100 ng/mL of CD3 antibody, 100 ng/mL, of CD28 antibody, and 1.0 ng/mL of IL2 (#317303; #302913; #589102, BioLegend), respectively, and co-cultured with the above tumor cells at a ratio of 10:1 in presence of fluorescent caspase-3/7 substrate (#4440, Essen Bioscience). After 1.0 hours, cells were observed under fluorescence microscope.
(§2) To verify the above hypothesis, tumor cells with high SEMG2 expression (A375, LOVO) and SEMG2-negative tumor cells (DLD1, NCM460 and NCI-H1975) were selected. Different antibodies (irrelevant mouse IgG antibodies, MM02 or MM05 antibodies) were added during the PBMC killing experiments for the tumor cells.

The test system of assay [2] is DLD1 cells. The experiment in a line: Tumor cell killing by activated PBMC. The format is cell-based, human. To be noted: DLD1, SEMG2-negative. Here is the method: as §1, §2
Assay [3] deals with NCM460 cells. The assay is described as follows: Tumor cell killing by activated PBMC. The format is cell-based, human. Conditions: NCM460, SEMG2-negative. Here is the method:
as §1, §2

Assay [4] has as its target T1, SEMG2(497-509) fragment (Homo sapiens, UniProt Q02383).
T1 construct: SEMG2(497-509) fragment and SEMG2(563-574) fragment were immobilized on the ELISA plate; made in house; host or cells: chemical synthesis
The assay is described as follows: ELISA binding of antibodies to SEMG2(497-509) epitope. Here is the method:
Specifically, SEMG2 full-length protein (1-582), SEMG2(354-403) fragment, SEMG2(442-453) fragment, SEMG2(497-509) fragment and SEMG2(563-574) fragment were immobilized on the ELISA plate, and the same concentration of antibodies (MM02, MM05, MM07, MM08, MM13, MM14, HPA042767 and HPA042835) were added. Anti-mouse or anti-rabbit secondary antibodies were then used to detect the corresponding bound antibodies. MM02, MM05, MM07, MM08, MM13, and MM14 all bound to SEMG2(497509) epitope, HPA042767 bound to SEMG2 (354-403) epitope, and HPA042835 bound to […], while none of the antibodies bound to SEMG2 (442-453) control fragment.
Specifically, the preparation of polypeptide antigens and the screening of human natural antibody library were firstly performed. The SEMG2(497-509) polypeptide was synthesized and coupled to BSA and KLH, respectively, and screened in a fully human phage display antibody library. ELISA was used to select clones that bind to antigenic epitopes for preliminary screening. Different unique sequences were obtained after sequencing single colonies, sorted according to affinity sorting, and full-length antibodies were constructed from antigen-binding fragments (Fab) with relatively high affinity. The binding ability and blocking function tests were performed after purification, that is, the effect of the antibody on binding between SEMG2 and CD27 was determined by the ELISA experiment.

“Also recorded” adds a separate entry of the source.

B1: MM02: mouse monoclonal antibody against SEMG2(497-509), mIgG2b kappa, VH SEQ ID NO:35, VL SEQ ID NO:42 (antibody, V domains shown)
VH: QIQLVQSGPEVKKPGETVRISCKASGYTLTTAGIQWVQKMPGKGLKWIGWINTHSGVPEYAEDFKGRFAFFLETSASTAYLQISNLKNEDTATYFCARLGLLGYWGQGTTLTVSS
VL: DILLTQSPAILSVSPGERVSFSCRASQSIGTTIHWYQQRTNGSPRLLIKYASESISGIPSRFSGSGSGTDFTLSINSVESEDIADYYCQQSNSWPWTFGGGTKLEIKRA
modifications: UNSURE (1)..(115) VH; UNSURE (1)..(109) VL
Consider B1, for which the “killing by activated PBMC” value in assay [1], in assay [2] and in assay [3] was “no obvious impact” throughout. In assay [4], the “binding to SEMG2(497-509) epitope” value is “able to hind to SEMG2(497-509); also recorded: bound”.

B2: MM05: mouse monoclonal antibody against SEMG2(497-509), mIgG1 kappa, VH SEQ ID NO:36, VL SEQ ID NO:43 (antibody, V domains shown)
VH: QVQLQQPGAELVRPGASVKLSCEASGYTFTSYWMNWVKQRPGQGLEWIGMIDPSDSETHYNQMFKDKATLTVDKSSSTAYMQLSSLTSEDSAVYYCARYLGGKEGSFDYWGQGTTLTVSS
VL: DIVMSQSPSSLAVSAGEKVTMSCKSSQSLLNSRTRKNYLAWYQQKPGQSPKLLIYWASTRESGVPDRFTGSGSGTDFTLTISSVQAEDLAVYYCKQSYSLPWTFGGGTKLEIKRA
modifications: UNSURE (1)..(120) VH; UNSURE (1)..(115) VL
For B2, the “killing by activated PBMC” value in assay [1], in assay [2] and in assay [3] was “no obvious impact” in each case. In addition, the “binding to SEMG2(497-509) epitope” value in assay [4] was “able to hind to SEMG2(497-509); also recorded: bound”.

Values taken from patent publication US20230080534A1, “SEMG2 ANTIBODY AND USE THEREOF” (SHANGHAI BIOTROY BIOTECHNIQUE CO., LTD., priority 2020, published 2023).
